Laboratory results as given in publication PMC7998035, “Restoration of the healing microenvironment in diabetic wounds with matrix-binding IL-1 receptor antagonist” (Communications Biology, 2021).

B1: human fibrinogen (complex)
chain 1: ADSGEGDFLAEGGGVRGPRVVERHQSACKDSDWPFCSDEDWNYKCPSGCRMKGLIDEVNQDFTNRINKLKNSLFEYQKNNKDSHSLTTNIMEILRGDFSSANNRDNTYNRVSEDLRSRIEVLKRKVIEKVQHIQLLQKNVRAQLVDMKRLEVDIDIKIRSCRGSCSRALAREVDLKDYEDQQKQLEQVIAKDLLPSRDRQHLPLIKMKPVPDLVPGNFKSQLQKVPPEWKALTDMPQMRMELERPGGNEITRGGSTSYGTGSETESPRNPSSAGSWNSGSSGPGSTGNRNPGSSGTGGTATWKPGSSGPGSTGSWNSGSSGTGSTGNQNPGSPRPGSTGTWNPGSSERGSAGHWTSESSVSGSTGQWHSESGSFRPDSPGSGNARPNNPDWGTFEEVSGNVSPGTRREYHTEKLVTSKGDKELRTGKEKVTSGSTTTTRRSCSKTVTKTVIGPDGHKEVTKEVVTSEDGSDCPEAMDLGTLSGIGTLDGFRHRHPDEAAFFDTASTGKTFPGFFSPMLGEFVSETESRGSESGIFTNTKESSSHHPGIAEFPSRGKSSSYSKQFTSSTSYNRGDSTFESKSYKMADEAGSEADHEGTHSTKRGHAKSRPV
chain 2: QGVNDNEEGFFSARGHRPLDKKREEAPSLRPAPPPISGGGYRARPAKAAATQKKVERKAPDAGGCLHADPDLGVLCPTGCQLQEALLQQERPIRNSVDELNNNVEAVSQTSSSSFQYMYLLKDLWQKRQKQVKDNENVVNEYSSELEKHQLYIDETVNSNIPTNLRVLRSILENLRSKIQKLESDVSAQMEYCRTPCTVSCNIPVVSGKECEEIIRKGGETSEMYLIQPDSSVKPYRVYCDMNTENGGWTVIQNRQDGSVDFGRKWDPYKQGFGNVATNTDGKNYCGLPGEYWLGNDKISQLTRMGPTELLIEMEDWKGDKVKAHYGGFTVQNEANKYQISVNKYRGTAGNALMDGASQLMGENRTMTIHNGMFFSTYDRDNDGWLTSDPRKQCSKEDGGGWWYNRCHAANPNGRYYWGGQYTWDMAKHGTDDGVVWMNWKGSWYSMRKMSMKIRPFFPQQ
chain 3: YVATRDNCCILDERFGSYCPTTCGIADFLSTYQTKVDKDLQSLEDILHQVENKTSEVKQLIKAIQLTYNPDESSKPNMIDAATLKSRKMLEEIMKYEASILTHDSSIRYLQEIYNSNNQKIVNLKEKVAQLEAQCQEPCKDTVQIHDITGKDCQDIANKGAKQSGLYFIKPLKANQQFLVYCEIDGSGNGWTVFQKRLDGSVDFKKNWIQYKEGFGHLSPTGTTEFWLGNEKIHLISTQSAIPYALRVELEDWNGRTSTADYAMFKVGPEADKYRLTYAYFAGGDAGDAFDGFDFGDDPSDKFFTSHNGMQFSTWDNDNDKFEGNCAEQDGSGWWMNKCHAGHLNGVYYQGGTYSKASTPNGYDNGIIWATWKTRWYSMKKTTMKIIPFNRLTIGEGQQHHLGGAKQAGDV
modifications: Plasma-derived intact fibrinogen (Enzyme Research Laboratories), fibrinopeptides A and B retained; disulfide-linked (AαBβγ)2 hexamer, N-glycosylated, Ca2+-bound. By convention, the major circulating …

How the values were obtained:
Test in all cases: ELISA; ECM protein coated on the plate (100 nM in PBS, 1 h, 37 °C), blocked with 1% BSA in PBS-T; IL-1Ra or PDGF-BB variants at 0 to 100 nM in PBS-T with 0.1% BSA, 1 h, room temperature; bound protein detected with biotinylated antibodies (DuoSet); specific binding fitted with a one site-specific binding model; means of 3 independent experiments
Details in all cases: both partners purified
[1] = biological target: T1, PDGF-BB/PlGF123-141
T1 construct: platelet-derived growth factor subunit B; also called engineered PDGF-BB

[2] = biological target: T2, IL-1Ra/PlGF123-141
T2 construct: interleukin-1 receptor antagonist; source: E. coli BL21 (DE3), pET-22b, soluble fraction purified (chelating SFF(Ni) column)

[3] = biological target: B1
[4] = biological target: T3, human tenascin C (human, UniProt P24821 23-2201)
T3 construct: tenascin C, human; also called TnC; source: bought: R&D Systems

[5] = biological target: human plasma fibronectin (human)
[6] = biological target: T4, human vitronectin (human, UniProt P04004 20-478)
T4 construct: vitronectin, human; also called Vn; source: bought: Peprotech
T4 sequence (P04004 20-478): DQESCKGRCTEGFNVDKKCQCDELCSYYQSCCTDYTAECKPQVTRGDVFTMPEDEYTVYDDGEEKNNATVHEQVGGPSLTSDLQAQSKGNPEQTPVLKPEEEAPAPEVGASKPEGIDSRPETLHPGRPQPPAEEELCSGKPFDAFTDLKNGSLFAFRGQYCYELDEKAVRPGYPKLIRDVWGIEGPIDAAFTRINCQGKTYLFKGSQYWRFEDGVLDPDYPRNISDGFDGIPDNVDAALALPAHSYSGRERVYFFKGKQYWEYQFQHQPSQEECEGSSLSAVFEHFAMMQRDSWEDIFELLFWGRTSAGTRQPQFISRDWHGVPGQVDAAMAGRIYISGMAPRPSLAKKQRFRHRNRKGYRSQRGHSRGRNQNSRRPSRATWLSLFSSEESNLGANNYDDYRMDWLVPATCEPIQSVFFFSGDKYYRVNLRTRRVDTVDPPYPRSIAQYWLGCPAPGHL

T3 sequence (P24821 23-2201): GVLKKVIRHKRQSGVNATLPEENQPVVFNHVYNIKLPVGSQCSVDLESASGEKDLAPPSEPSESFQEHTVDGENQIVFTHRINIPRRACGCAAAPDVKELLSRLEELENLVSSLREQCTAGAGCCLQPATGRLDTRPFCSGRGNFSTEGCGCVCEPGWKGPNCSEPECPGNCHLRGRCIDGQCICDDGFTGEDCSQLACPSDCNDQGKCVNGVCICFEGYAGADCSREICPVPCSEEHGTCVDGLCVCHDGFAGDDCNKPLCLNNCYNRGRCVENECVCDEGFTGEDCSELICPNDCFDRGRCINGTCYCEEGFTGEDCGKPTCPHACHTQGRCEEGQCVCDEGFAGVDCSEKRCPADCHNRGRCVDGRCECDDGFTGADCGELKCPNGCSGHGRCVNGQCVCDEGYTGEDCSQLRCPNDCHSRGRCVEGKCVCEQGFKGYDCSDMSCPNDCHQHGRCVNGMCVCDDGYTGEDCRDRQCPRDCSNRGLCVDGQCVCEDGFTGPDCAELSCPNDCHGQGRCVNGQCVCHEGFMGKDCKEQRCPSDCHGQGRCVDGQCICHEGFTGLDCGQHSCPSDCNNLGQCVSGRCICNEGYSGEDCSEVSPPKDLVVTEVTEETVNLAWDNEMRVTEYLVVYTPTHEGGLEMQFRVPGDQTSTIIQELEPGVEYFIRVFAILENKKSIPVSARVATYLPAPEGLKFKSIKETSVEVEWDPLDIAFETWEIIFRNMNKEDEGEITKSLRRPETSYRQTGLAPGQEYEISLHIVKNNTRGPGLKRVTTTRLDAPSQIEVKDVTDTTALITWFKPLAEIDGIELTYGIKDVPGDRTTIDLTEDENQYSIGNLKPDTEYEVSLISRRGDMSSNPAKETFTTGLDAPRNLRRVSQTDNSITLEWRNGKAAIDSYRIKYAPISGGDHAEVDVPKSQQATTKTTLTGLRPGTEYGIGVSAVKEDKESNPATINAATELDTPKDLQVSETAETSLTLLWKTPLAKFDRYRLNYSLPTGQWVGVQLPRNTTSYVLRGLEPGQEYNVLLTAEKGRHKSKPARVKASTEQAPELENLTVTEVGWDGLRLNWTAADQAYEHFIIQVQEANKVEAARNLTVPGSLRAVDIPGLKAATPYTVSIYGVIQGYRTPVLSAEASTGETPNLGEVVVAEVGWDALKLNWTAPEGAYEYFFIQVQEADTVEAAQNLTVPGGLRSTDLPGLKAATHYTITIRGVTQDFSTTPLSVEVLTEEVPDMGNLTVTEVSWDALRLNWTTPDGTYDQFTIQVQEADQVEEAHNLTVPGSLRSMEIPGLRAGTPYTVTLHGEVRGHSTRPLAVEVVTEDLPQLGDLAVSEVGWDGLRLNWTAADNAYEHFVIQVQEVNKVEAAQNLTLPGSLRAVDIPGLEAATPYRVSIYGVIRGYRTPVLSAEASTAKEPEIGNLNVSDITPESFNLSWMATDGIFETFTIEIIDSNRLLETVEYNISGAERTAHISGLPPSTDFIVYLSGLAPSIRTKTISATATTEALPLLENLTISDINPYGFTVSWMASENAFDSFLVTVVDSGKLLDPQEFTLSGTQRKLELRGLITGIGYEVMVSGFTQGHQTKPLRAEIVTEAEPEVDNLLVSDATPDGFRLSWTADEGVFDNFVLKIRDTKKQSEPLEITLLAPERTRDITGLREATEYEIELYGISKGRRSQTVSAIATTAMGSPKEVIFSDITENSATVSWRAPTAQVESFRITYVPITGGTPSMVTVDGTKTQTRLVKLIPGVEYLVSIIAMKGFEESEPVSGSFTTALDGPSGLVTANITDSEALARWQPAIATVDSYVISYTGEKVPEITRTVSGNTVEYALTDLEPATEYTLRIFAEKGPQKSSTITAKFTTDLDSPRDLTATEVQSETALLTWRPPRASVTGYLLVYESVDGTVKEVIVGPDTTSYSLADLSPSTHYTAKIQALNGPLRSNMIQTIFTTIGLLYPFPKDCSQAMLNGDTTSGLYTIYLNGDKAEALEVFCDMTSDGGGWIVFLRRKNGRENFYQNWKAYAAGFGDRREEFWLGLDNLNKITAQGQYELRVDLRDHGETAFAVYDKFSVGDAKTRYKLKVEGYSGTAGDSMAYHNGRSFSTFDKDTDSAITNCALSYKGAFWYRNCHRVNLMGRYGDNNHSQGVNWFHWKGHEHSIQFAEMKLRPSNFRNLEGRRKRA
human plasma fibronectin (human), sequence (P02751 other isoform, or with tags, fused parts or gaps): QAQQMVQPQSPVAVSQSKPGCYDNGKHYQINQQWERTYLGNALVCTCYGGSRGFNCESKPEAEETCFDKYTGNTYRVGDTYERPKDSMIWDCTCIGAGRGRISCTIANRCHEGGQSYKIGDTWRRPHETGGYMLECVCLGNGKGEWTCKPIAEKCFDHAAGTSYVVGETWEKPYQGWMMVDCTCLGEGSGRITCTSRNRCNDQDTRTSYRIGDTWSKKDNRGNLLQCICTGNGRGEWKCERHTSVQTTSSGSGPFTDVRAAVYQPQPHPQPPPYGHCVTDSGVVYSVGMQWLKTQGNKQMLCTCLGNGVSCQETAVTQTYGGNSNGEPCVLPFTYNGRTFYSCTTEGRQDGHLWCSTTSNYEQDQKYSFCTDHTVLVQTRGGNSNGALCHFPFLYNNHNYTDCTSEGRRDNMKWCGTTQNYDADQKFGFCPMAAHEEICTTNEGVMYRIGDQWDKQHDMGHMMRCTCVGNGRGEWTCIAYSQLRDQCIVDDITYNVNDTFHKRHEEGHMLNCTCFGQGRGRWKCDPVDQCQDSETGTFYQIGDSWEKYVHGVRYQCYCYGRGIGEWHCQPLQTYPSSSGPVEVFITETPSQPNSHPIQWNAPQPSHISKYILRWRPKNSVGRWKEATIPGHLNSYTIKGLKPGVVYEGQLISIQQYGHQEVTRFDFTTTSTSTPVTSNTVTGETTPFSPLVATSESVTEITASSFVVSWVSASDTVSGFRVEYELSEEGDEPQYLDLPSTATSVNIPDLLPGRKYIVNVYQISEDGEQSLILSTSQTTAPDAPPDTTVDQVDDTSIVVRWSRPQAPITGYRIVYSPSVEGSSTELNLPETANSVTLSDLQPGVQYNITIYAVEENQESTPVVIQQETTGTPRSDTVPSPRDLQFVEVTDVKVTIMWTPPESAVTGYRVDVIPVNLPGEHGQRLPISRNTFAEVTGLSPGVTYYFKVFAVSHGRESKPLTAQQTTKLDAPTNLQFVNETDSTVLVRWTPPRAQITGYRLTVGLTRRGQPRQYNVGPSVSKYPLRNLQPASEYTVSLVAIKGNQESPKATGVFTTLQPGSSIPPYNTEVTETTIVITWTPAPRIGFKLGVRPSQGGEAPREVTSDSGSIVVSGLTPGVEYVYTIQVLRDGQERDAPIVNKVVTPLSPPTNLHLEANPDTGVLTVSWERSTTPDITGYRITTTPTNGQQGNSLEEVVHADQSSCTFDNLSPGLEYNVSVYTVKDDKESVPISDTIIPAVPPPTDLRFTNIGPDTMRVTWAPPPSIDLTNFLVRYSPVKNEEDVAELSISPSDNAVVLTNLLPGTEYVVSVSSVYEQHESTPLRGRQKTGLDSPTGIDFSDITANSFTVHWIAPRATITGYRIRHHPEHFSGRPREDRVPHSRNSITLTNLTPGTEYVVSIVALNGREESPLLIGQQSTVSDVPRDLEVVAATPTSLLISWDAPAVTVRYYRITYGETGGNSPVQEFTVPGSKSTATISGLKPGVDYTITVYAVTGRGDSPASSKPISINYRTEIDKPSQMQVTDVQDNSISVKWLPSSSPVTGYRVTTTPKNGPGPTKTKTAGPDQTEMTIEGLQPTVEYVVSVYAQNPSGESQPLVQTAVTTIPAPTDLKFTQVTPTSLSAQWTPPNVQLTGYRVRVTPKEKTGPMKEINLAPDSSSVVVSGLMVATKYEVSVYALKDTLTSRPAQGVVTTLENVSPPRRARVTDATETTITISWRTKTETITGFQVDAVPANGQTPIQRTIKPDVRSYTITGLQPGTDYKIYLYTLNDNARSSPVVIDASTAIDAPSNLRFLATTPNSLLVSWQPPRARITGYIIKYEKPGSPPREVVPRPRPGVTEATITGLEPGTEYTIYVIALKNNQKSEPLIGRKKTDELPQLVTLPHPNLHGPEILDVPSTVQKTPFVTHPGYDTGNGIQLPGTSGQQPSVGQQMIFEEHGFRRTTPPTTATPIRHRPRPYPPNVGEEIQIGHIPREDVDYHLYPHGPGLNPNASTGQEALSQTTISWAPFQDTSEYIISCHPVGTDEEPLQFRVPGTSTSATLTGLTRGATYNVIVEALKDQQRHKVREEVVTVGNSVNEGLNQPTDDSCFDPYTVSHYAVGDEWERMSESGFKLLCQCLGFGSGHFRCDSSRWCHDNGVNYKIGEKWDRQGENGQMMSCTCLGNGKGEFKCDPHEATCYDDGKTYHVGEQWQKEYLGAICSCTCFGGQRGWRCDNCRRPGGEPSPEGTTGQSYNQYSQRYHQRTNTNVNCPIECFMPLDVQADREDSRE
T2 sequence (P18510 whole entry): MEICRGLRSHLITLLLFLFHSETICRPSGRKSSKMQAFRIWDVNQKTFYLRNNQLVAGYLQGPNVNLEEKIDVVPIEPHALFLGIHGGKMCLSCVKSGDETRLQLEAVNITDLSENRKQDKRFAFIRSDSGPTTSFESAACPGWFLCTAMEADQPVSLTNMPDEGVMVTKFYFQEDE

B1
Kd [1]: 16.7 nM
Kd [2]: 43.5 nM

B2: murine wild-type IL-1 receptor antagonist (IL-1Ra) (natural protein, mouse, UniProt P25085 27-178, looked up)
chain: RPSGKRPCKMQAFRIWDTNQKTFYLRNNQLIAGYLQGPNIKLEEKIDMVPIDLHSVFLGIHGGKLCLSCAKSGDDIKLQLEEVNITDLSKNKEEDKRFTFIRSEKGPTTSFESAACPGWFLCTTLEADRPVSLTNTPEEPLIVTKFYFQEDQ
notes: interleukin-1 receptor antagonist protein, mouse; also called interleukin-1 receptor antagonist
Kd [3]: 663 nM
Kd [4]: 113 nM
Kd [5]: 129 nM
Kd [6]: 73.2 nM

B3: murine wild-type platelet-derived growth factor-BB (PDGF-BB) (ligand, mouse, UniProt P31240 82-190, looked up)
chain: SLGSLAAAEPAVIAECKTRTEVFQISRNLIDRTNANFLVWPPCVEVQRCSGCCNNRNVQCRASQVQMRPVQVRKIEIVRKKPIFKKATVTLEDHLACKCETIVTPRPVT
notes: platelet-derived growth factor subunit B, mouse; PDGF-BB occurs as a dimer; source: bought: Peprotech
Kd [3]: 206 nM
Kd [4]: 94.3 nM
Kd [5]: 67.5 nM
Kd [6]: 32.1 nM
